# Values of other authors as cited in publication PMC4926285.
# pKd: −log10 of the molar value.
# Target: insulin receptor (site 1) site 1 (L1 and carboxy-terminal α-chain) (Homo sapiens) (UniProt P06213)
# Chain of UniProt P06213 (P06213 28-182): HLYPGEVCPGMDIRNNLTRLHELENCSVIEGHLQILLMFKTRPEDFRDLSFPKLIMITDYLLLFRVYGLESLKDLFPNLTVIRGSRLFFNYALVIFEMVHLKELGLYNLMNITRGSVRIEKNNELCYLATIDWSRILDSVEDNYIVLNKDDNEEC
# Chain of insulin (P01308 90-110): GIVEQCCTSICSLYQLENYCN
substance,measurement,value
insulin (from UniProt P01308),pKd,8.19
